Read-outs that look alike come from different tables or passages of the source.
Columns and labels:
[1] = target: T1, thermolysin-cleaved EBOV GP on Jurkat-GP cells (cleaved GP) (Zaire ebolavirus, Makona (GP1 core …, strain))
T1 chain 1: not shown
T1 chain 2: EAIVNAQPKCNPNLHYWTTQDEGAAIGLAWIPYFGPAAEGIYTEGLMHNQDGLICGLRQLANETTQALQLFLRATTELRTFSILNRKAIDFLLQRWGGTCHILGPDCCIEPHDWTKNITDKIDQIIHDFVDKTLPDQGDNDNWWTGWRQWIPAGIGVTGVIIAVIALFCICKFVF

[2] = target: T2, EBOV GP ectodomain residues 1-636 (GPec) (Zaire ebolavirus, strain  …, UniProt Q05320)
[3] = target: T2, EBOV GP ectodomain residues 1-636 (GPec); test: ELISA; details: both partners purified
[4] = target: EBOV glycoprotein (GP), Makona strain, full length mature, on Jurkat-GP cells (native GP) (Zaire ebolavirus, Makona (stand-in: …, UniProt P87666, strain))

Row | Binder | binding result [1] | binding result [2] | binding result [3] | binding result [4]
1 | 5.6.c3835 (antibody, V domains shown) VH: QIQLVQSGAEVKKPGASVKVSCRASGYTFASSGISWVRQAPGQGLEWMGWINVYNGDTNSAHKLQGRVTMTTDTSTSTAYMELRSLRSDDTAVYYCTRDSFCAGSNSCYLWAGYYYYAMDVWGQGTTVTVSP VL: EIVMTQSPATLSVSPGERATLSCRASQSLSSNLAWYQQKPGQAPRLLIYRASTRATGVPARFSGSGSGTEFTLIISNLQSEDFAVYYCQQFQNWPRTFGQGTKVEIK | binds | binds | – | –
2 | 5.6.c4515 (antibody, V domains shown) VH: QVQLVESGGDVVQPGRSLRLSCAASGFIFSTYGMHWVRQTPGKGLEWVAVLYYDGRNGYYADSVKGRFTISRDNSKNTLYLQMNSLRAEDTAVYYCARDGCSSTDCLLYYYAMDVWGQGTTVTVSS VL: QSALTQPPSASGSPGQSVTISCTGTSSDVGAYNYVSWYQQHPGKGPKLMIYEVNQRPSGVPGRFSGSKSGNTASLTVSGLQTEDEADYFCSSYAGSNTVVFGGGTKLTVL | binds | binds | – | –
3 | 9.1.c2296 (antibody, V domains shown) VH: QVQLVESGGGVVHPGRSLRLSCAASGFTFSTYGMHWVRQAPGKGLEWVAVISYDGTNKYYADSVKGRFTTSRDNSKNTLYLQMNSLRAEDTAVYYCAKGEAYYDILTGNIDMWGQGTMVTVSS VL: DIQMTQSPSTLSASVGDRVTITCRASQSISYWLAWYQQKPGKAPKVLIYDVSSLESGVPSRFSGSGSETEFTLTISSLQPDDFATYYCQQYHSYPLTFGGGTKVEIK | binds | binds | – | –
4 | 9.1.c1853 (antibody, V domains shown) VH: EVQLVQSGAEVKKPGESLRISCKGSGNSFSSYWISWVRQKPGKGLEWMGRIDPSDSYTSYSPSFQGHVTISADKTNSTAYLQWSGLKASDTAVYYCAREVAGEEIFYYYYMDVWGKGTPVTVSS VL: EIVLTQSPVTLSLSPGEKATLSCRASQSVISSYLVWYQQKPGQAPRLLIYGASNRASGIPDRFSGSGSGTDFTLTISRLEPEDFAVYYCQLYGSLPRWTFGQGTEVQIK | binds | binds | – | –
5 | 9.1.c1500 (antibody, V domains shown) VH: QLQLQESGPGLVKPSETLSLTCTVSGGSISSSSYFWGWIRQPPGKGLELIGIIYYTGNTNYNPSLKSRVTISVDTSKNQFSLKLSSVTAADTAVYYCARSLEAHLLYYYAMDVWGQGTTVTVFS VL: QSALTQPRSVSGSPGQSVTISCTGTSSDVGGYNYVSWYQQHPGKAPKLMIYDVSQRPSGVPDRFSGSKSGNTASLTISGLQAADEADYYCCSYAGSSWVFGGGTKLTVL | binds | binds | – | –
6 | mAb 5.1.10B3 (antibody, V domains shown) VH: EVQLVESGGGLVQPGGSLRLSCAASGFTFRSYDMHWVRQATGKGLEWVSAIGTAGDTYYPGSVKGRFTISRENAKNSLYLQMNSLRAEDTAVYYCARVRFGDTAVDYWGQGTLVTVSS VL: DIQMTQSPSSLSASVGDRVTITCRASQSISSFLNWHQQKPGKAPKLLIYAASSLQSGVPSRFSGSGSGTDFTLTISSLQPEDFAIYYCQQSYISPFTFGPGTKVDIK | – | – | binds | –
7 | 5.6.c3105 (antibody, V domains shown) VH: EEQLVESGGDLVQPGGSLRLSCAASGFTFRSYDMYWVRQVTGKGLEWVSVIGAGGDTYYSDAVKGRFTISRENAKNSLYLQMNNLRAGDTAVYYCARSFGFLYGFDVWGHGTTVTVSS VL: ENVLTQSPGTLSLSPGERATLSCRASQSISSKYFAWYQHKPGQAPRVLIYAASSRATGVPDRFSGSGSGTDFTLTISRLEPEDFAVYYCQQYDSSPITFGQGTRLEIK | binds | binds | – | binds
8 | 9.1.c1533 (antibody, V domains shown) VH: QVQLQESGPGLVKPSGTLSLTCTVSGGSISSNNWWSWVRQSPGKGLEWIGEIYHSGSTNYNPSLKSRVTISVDKSKNQFSLKVSSVTAADTAVYYCARGDQLIYYFDYWGQGTLVTVSS VL: QSALTQPASVSGSPGQSITISCTGSSSDVGVYDFVSWYQQHPGKAPKLMIYEVSNRPSGVSNRFSGSKSGNTASLTISGLQAEDEANYYCSSYTSSITNVVFGGGTKLTVL | binds | binds | – | –
9 | 5.6.c3567 (antibody, V domains shown) VH: EVQLVESGGVVVQPGGSLRLSCAASGFTFDDYTMHWVRQVPGKGPEWVSLITWDGAHTYYADSVKGRFTISRDNSKNSLYLQMNSLRTEDTALYFCARDTAGGAFWSGYPDYWGQGTLVTVSS VL: DIQMTQSPSSLSASVGDRVTITCRASQSISSYLIWYQQKPGKVPKVLIYGASSLQSGVPSRFSGSGSGTDFTLTISSLQPEDFATYYCQQSHSIPYTFGQGTKLEIK | binds | binds | – | –
10 | 5.6.c4011 (antibody, V domains shown) VH: QVQLQESGPGVVKPSETLSLTCTVSGASMTGYYWSWIRQPPGKGLEWIGYIFYSGSTNYNPSLKSRATISVDTSKKQFSLKLSSVTAADTAVYYCARSVVVIENDAFDIWGQGTMVTVSS VL: DIQMTQSPSSLSASVGDRVTITCRASQSTTSYLNWYQQKPGKAPKLLIFAASTLQSGVPSRFSGSGSGTDFTLTISSLQPEDFATYYCQQSYSAPYTFGQGTKLEIK | binds | binds | – | –
11 | 5.6.c4395 (antibody, V domains shown) VH: EVQLVESGGGLVQPGGSLRLSCAASGFTFSTYEMNWVRQAPGKGLEWIAFIDDGGSTINYADSVKGRFTVSRDNAKNSLYLQMNSLRADDTAIYYCARVMTTSFYYYGVDVWGQGTTVTVSS VL: DIQMTQSPSIVSASVGDRVTITCRASQGVSYWLAWYQQKPGKAPKLLIYAASSLQSGVPSRFSGSGSGTDFTLTISSLQPEDFATYYCQQAHSFPWTFGQGTKVEMK | binds | binds | – | –
12 | 5.6.c4471 (antibody, V domains shown) VH: QIQLVQSGTEVKKPGASVKVSCTASGYTFNNYAITWVRQAPGQGLEWMGWINPYNGDTTYAQKLQGRITMTTGRSTSTAYMDLRSLTSGDTAVYYCARGGAVTDLYFSYVMDVWGQGTTVSVSS VL: DIQMTQSPSSVSASVGDRVTITCRASQDVSYWLAWFQQKPGKAPELLIHAASSLQSGVPSRFSGSGSGTDFTLTINSLQPEDFATYYCQQSHSFPWTFGQGTKVEIK | binds | binds | – | –
13 | 5.6.c4013 (antibody, V domains shown) VH: EVQLVESGGDLVQPGGSLRLSCAASGFTVNANYLGWVRQTPGKGLEWVSLIYSGSGSTYYADSVKGRFTLSRDSSKNTLFLHMNSLRPEDTAVYYCARAGGVVVTAIRTTFDYWGRGTLVTVSS VL: DIQMTQSPSTLSASVGDRVTITCRASQSISRWLAWYQQKPGKAPKLLIYRASSLQNGVPSRFSGSGSGTEFTLTISGLQPDDFGIYYCQEYSSRYTFGQGTQLEIK | binds | binds | – | –
14 | 9.1.c1617 (antibody, V domains shown) VH: QVQFVESGGGLVKPGGSLRLSCTTSGFTFSDYYMSWIRQAPGKGLEWVSYISRSGNIIYYPDSVKGRFTISRDNAKNSLYLQMNSLRVEDTAVYYCAGGVQRGYNYYYYGMYVWGQGITVTVSS VL: DIVMTQSPLSLPVTPGEPASISCRSSQSLLHSNGYNYLDWYLQRPGQSPQLLIYLGSNRASGVPDRFSGSGSGTDFTLKISRVEAEDFGFYYCMQALQTPYTFGQGTKLEIR | binds | binds | – | –
15 | 5.6.c3363 (antibody, V domains shown) VH: EVKLVESGGDLIQPGGSLRLSCAGSGFTFSNYAMSWVRQAPGKGLEWVSGLSGSGRNTYYADSVKGRFTISRDNSQNTLFLQMNSLRAEDTAIYYCATASVWSGYVLQYWGQGALVIVSS VL: DIQMTQSPSSLSASVGDRVTITCRASQNINDWLAWYQQKPGKAPKLLIFRASSLESGVPSRFSGSGFGTEFTLTISSLQPDDFASYYCQQYKSYPMYTFGQGTKLDIN | binds | binds | – | binds
16 | 5.6.c4516 (antibody, V domains shown) VH: EVHLVESGGGLVQRGGSLRLSCVASKFSFSFYSMGWVRQPPGKGLEWVSFISISGTTIYYEDSVKGRFTISRDDAKNSLYLQMNSLRDEDTAVYYCARIPQAAFHFDYWGQGTLVAVSS VL: QSALTQPASVSGSPGQSITISCTGSSSDVGSYNLVSWYQQHPGKAPKLMIYEGSSRPSGVSNRFSGSKSGNTASLTISGLQAEDEADYYCCAYAGTRTWLFGGGTKVTVL | binds | binds | – | –
17 | 9.1.c1965 (antibody, V domains shown) VH: QVQLVQSGAEVKKPGASVKVSCKASGYTFTRYGINWVRQAPGQGLEWMGWISAYNGHTSYAQKLQGRVTMTTDTSTSTAYMELSSLRSDDTAVYYCARDAGMVRPYYFDYWGQGTLVTVSS VL: not shown | binds | binds | – | –
18 | 5.6.c4392 (antibody, V domains shown) VH: QVQLVESGGGVVQPGRSLRLSCAASGFFFRNYGIHWVRQAPGKGLEWVAIISYDESKKYYADSVKGRFTISRDNSKNTLYLQMNSLRAEDTAVYYCAKAHPHSRWFFDSWGQGTLVTVSS VL: NFVLTQPHSVSDSPGKTVTISCTRSSGSIATDYVQWYQQRPGSAPTLVIYEDNQRPSGVPNRFSGSIDSSSNSASLTISGLETEDEADYYCQSYDPTNLVFGGGTKLTVL | binds | binds | – | –
19 | 9.1.c1482 (antibody, V domains shown) VH: QLQLQESGPGLVKPSETLSLTCTVSGGSITSGSNYWGWIRQSPGKGLEWIGSIYYSGSTYYNPSLKSRVTTSVDTSKNQFSLRMSSVTAADTALYYCVRHLSTELLFGCFDPWGQGTLVTVSS VL: DIQMTQSPSTLSASVGDRVTITCRASQSITGWLAWYQQKPGKAPKLLIYDASSLESGVPSRFSGSGSGTEFTLTISSLQPDDFATYYCLQYHSYSSFGQGTKLEIK | binds | binds | – | –
